Reference: the supplement of paper PMC9732359
± gives the uncertainty stated by the source.

Test: protein stability index of a GFP-peptide fusion (yeast GPS) (PSI 1-4); higher = more stable; sorted into four equal gates, so the index is relative within each strain
Procedure, shortened: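 The protein stability index combines read frequencies across sorting gates, each weighted by its gate number and then summed. To obtain those frequencies, a pooled yeast library of GFP fusions to tiled 17-residue yeast protein peptides, on a plasmid also expressing Cherry, was grown to mid-log phase in leucine-free medium. The cells were sorted into four equal gates by GFP/Cherry ratio before plasmid amplification by PCR and Illumina sequencing.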

Row | Sequence | protein stability index (doa10∆) | protein stability index (pdr5∆) | protein stability index (san1∆) | protein stability index (ubr1∆)
1 | HLMSWSKTGIIAYSDSQ [SIN4] | 1.63 ± 0.11 | 1.59 ± 0.15 | 1.32 ± 0.12 | 2.2 ± 0.2
2 | HLRSNILKDLIYRGVLN [SMC1] | 1.74 ± 0.059 | 1.78 ± 0.085 | 1.8 ± 0.14 | 1.74 ± 0.056
3 | HNKLNITSDALEGITTT [SMC3] | 3.19 ± 0.16 | 3.09 ± 0.15 | 3.03 ± 0.092 | 3.1 ± 0.092
4 | HNLHPQIGQVPLAPAPI [SNF5] | 2.54 ± 0.062 | 2.23 ± 0.065 | 2.56 ± 0.059 | 2.76 ± 0.063
5 | HPGFGCWLSSVDVNTQK [RPN11] | 1.25 ± 0.23 | 1.25 ± 0.24 | – | –
6 | HPQDFGNPGRIRVLFKE [SEC65] | 2.91 ± 0.077 | 2.94 ± 0.11 | 3.13 ± 0.065 | 3.11 ± 0.061
7 | HQFHDILEEKTDLHLPK [NSL1] | 2.35 ± 0.07 | 2.29 ± 0.065 | 2.27 ± 0.076 | 2.38 ± 0.054
8 | HRLLQRALFRQLKRWYW [RMP1] | 2.29 ± 0.18 | 1.2 ± 0.12 | 1.22 ± 0.17 | 1.35 ± 0.11
9 | HRSKKDQDQYLEIAKDF [IRR1] | 3.15 ± 0.14 | 3.21 ± 0.12 | 3.04 ± 0.13 | 3.6 ± 0.27
10 | HSGELMRQQSKELQQLQ [SMC1] | 2.89 ± 0.15 | 2.98 ± 0.13 | 2.9 ± 0.11 | 2.7 ± 0.27
11 | HSISEAENMLEELRGQQ [SMC4] | 3.27 ± 0.094 | 2.52 ± 0.18 | 3.35 ± 0.068 | 3.2 ± 0.079
12 | HSNLEKISNSKLLSLLR [SIR4] | 2.4 ± 0.063 | 2.65 ± 0.052 | 2.5 ± 0.051 | 2.48 ± 0.047
13 | HTPMVNFESISARSSVH [SRB8] | 2.08 ± 0.043 | 1.97 ± 0.032 | 1.79 ± 0.051 | 2.12 ± 0.025
14 | HTQDIIGGMRVDENGDP [RET1] | 3.2 ± 0.084 | 3.32 ± 0.073 | 3.17 ± 0.055 | 3.37 ± 0.054
15 | HTSSNSREIAQPSSSRY [SMB1] | 3.17 ± 0.11 | 2.97 ± 0.065 | 3.02 ± 0.054 | 3.22 ± 0.058
16 | HVKVNDKKEMTIYNNIR [SIR3] | 3.04 ± 0.052 | 2.91 ± 0.062 | 2.87 ± 0.04 | 3.228 ± 0.032
17 | HVPEKKSTDLTPKGNES [MTR3] | 2.97 ± 0.12 | 2.43 ± 0.13 | 2.66 ± 0.084 | 3.11 ± 0.096
18 | HWNLPGERIFNKIRNLE [SIR2] | 3.3 ± 0.098 | 3.23 ± 0.097 | 3.2 ± 0.056 | 3.29 ± 0.068
19 | IAAGTYGKVYKAKRQIN [SSN3] | 1.68 ± 0.061 | 2.03 ± 0.043 | 2.24 ± 0.068 | 2.29 ± 0.048
20 | IAFDDLIENKIQNKKIQ [RPN8] | 2.54 ± 0.07 | 2.25 ± 0.081 | 2.57 ± 0.066 | 2.71 ± 0.05
21 | IAIAGTGQIEGLLDYMR [COR1] | 3.37 ± 0.088 | 3.54 ± 0.081 | 3.17 ± 0.061 | 3.15 ± 0.057
22 | IAKLSVIPIRRGYWGTN [RPS2] | 2.02 ± 0.073 | 1.67 ± 0.11 | 1.93 ± 0.19 | 1.76 ± 0.12
23 | IALGEDIGKEMSLRHFG [RPN1] | 3.2 ± 0.088 | 3.07 ± 0.11 | 2.55 ± 0.2 | 3.34 ± 0.14
24 | IALNLDTTVNDCLDKLL [SNF2] | 2.54 ± 0.14 | 3.06 ± 0.14 | 2.65 ± 0.1 | 2.9 ± 0.073
25 | IAMPKRRMAFKPFGSAK [YLR335W/NUP2] | 2.86 ± 0.052 | 3.09 ± 0.064 | 3.11 ± 0.043 | 2.73 ± 0.044
26 | IANMVLPPEKIYSPLHS [SIR2] | 1.54 ± 0.035 | 1.99 ± 0.036 | 1.73 ± 0.05 | 1.67 ± 0.032
27 | IASTLGPSAMRLSRCIR [RPC82] | 1.84 ± 0.089 | 2.46 ± 0.08 | 1.81 ± 0.083 | 2.4 ± 0.055

Row | Sequence | protein stability index (doa10∆) | protein stability index (pdr5∆) | protein stability index (san1∆) | protein stability index (ubr1∆)
28 | IAYSDSQSSNANICLTF [SIN4] | 2.74 ± 0.1 | 2.7 ± 0.065 | 2.38 ± 0.081 | 2.89 ± 0.069
29 | IDEIAYLFHNDRIIHTW [ECM29] | 1.4 ± 0.049 | 1.43 ± 0.054 | 1.3 ± 0.081 | 1.66 ± 0.043
30 | IDEKSQFVETIVSKSIE [RPN2] | 1.68 ± 0.1 | 2.19 ± 0.1 | 1.64 ± 0.096 | 1.98 ± 0.089
31 | IDETMMDKPLNFRILKS [SRB5] | 2.95 ± 0.14 | 3.09 ± 0.13 | 2.76 ± 0.087 | 2.79 ± 0.13
32 | IDLEAPVQIVKRITQIT [RPS20] | 2.15 ± 0.12 | 2.23 ± 0.2 | 1.78 ± 0.14 | 2.2 ± 0.094
33 | IDMHLIYGVEWLIEGKL [YDL116W/NUP84] | 2.64 ± 0.17 | 2.58 ± 0.093 | – | 2.33 ± 0.099
34 | IDMIADENGTNSAIANE [RPC37] | – | – | – | 3.17 ± 0.11
35 | IDNYITNSVRLFEVNPS [SRP21] | 2.61 ± 0.1 | 2.78 ± 0.088 | 2.54 ± 0.091 | 2.28 ± 0.12
36 | IDQAHVSEITKLKFFPS [RPN14] | 3.12 ± 0.077 | 3.01 ± 0.071 | 3.12 ± 0.054 | 3.28 ± 0.053
37 | IDREGNARKVVGASVVV [RPS12] | 2.65 ± 0.18 | 2.75 ± 0.25 | – | 3.31 ± 0.22
38 | IDRGLFRSLFFRSYMDQ [RPB2] | 3 ± 0.27 | 2.88 ± 0.27 | 1.86 ± 0.25 | 2.94 ± 0.084
39 | IDSINGPDTKGQLEDFD [SMC3] | 3.47 ± 0.14 | 3.29 ± 0.11 | 3.18 ± 0.24 | 3.31 ± 0.1
40 | IDSSNLPLQAQQQLYGG [SWI1] | 2.91 ± 0.057 | 3.1 ± 0.062 | 2.75 ± 0.077 | 2.87 ± 0.043
41 | IDYSNSQIRLYAKFKRN [RGR1] | 3.1 ± 0.093 | 2.46 ± 0.1 | 2.45 ± 0.091 | 2.8 ± 0.057
42 | IEAASTTQDQCKLTLDI [RPB8] | 2.92 ± 0.06 | 3.12 ± 0.077 | 2.81 ± 0.042 | 3.07 ± 0.078
43 | IEAGRAALYKEVYNVIA [RPO21] | 2.36 ± 0.085 | 1.88 ± 0.096 | 2.41 ± 0.13 | 2.82 ± 0.11
44 | IEAIDEYNKPNSEKFVF [ISW2] | 2.6 ± 0.1 | 2.76 ± 0.075 | 3.01 ± 0.092 | 3.15 ± 0.075
45 | IEGMEQRIIKELSIRFP [ARP7] | 3.04 ± 0.096 | 3.21 ± 0.12 | 2.84 ± 0.086 | 2.26 ± 0.099
46 | IEKTESVDKKVDSGEER [SWI3] | 3.26 ± 0.098 | 3.3 ± 0.14 | 3.36 ± 0.055 | 3.46 ± 0.066
47 | IELIDYDKLPAGQNATV [RET1] | 2.41 ± 0.074 | 1.95 ± 0.079 | 1.67 ± 0.2 | 2.4 ± 0.068
48 | IELLSYLVEAPWNDDYP [YML103C/NUP188] | 1.68 ± 0.093 | 2.04 ± 0.15 | – | 2.49 ± 0.17
49 | IEPLEINIQSFKDVEHI [BRR2] | 2.5 ± 0.069 | 2.31 ± 0.062 | 2.12 ± 0.074 | 2.67 ± 0.068
50 | IEQLFPVRPVRVRHEDV [RPC53] | 2.9 ± 0.076 | 2.97 ± 0.048 | 2.89 ± 0.055 | 3.03 ± 0.037
51 | IERLTKRQFNNSYWLII [ITC1] | 3.01 ± 0.077 | 2.62 ± 0.099 | 2.16 ± 0.097 | 2.13 ± 0.071
52 | IESFVELGVSIYDFPGT [NUT2] | 2.83 ± 0.081 | 3.07 ± 0.095 | 2.53 ± 0.09 | 2.2 ± 0.038
53 | IFCVGSGQTFAYGVLDS [PRE2] | 2.49 ± 0.095 | 2.04 ± 0.11 | 2.249 ± 0.019 | 2.33 ± 0.073
54 | IFGSGFGSADDTYPYLT [FAS1] | 2.3 ± 0.075 | 1.74 ± 0.059 | 1.73 ± 0.09 | 2.1 ± 0.078
